# From the supplement of paper PMC7877785
# ± gives the uncertainty stated by the source.
# Assay: self-splicing fitness, log relative to wild type (ln ratio); higher = more splicing; Tetrahymena group I intron in knt gene, E. coli kanamycin selection, DiMSum; sequences stand for … in CUCUCU…GGAGGGAAAAGUUAUCAGGCAUGCACCUGGUAGCUAGUCUUUAAACCAAUAGAUUGCAUCGGUUUAAAAGGCAAGACCGUCAAAUUGCGGGAAAGGGGUCAACAGCCGUUCAGUACCAAGUCUCAGGGGAAACUUUGAGAUGGCCUUGCAAAGGGUAUGGUAAUAAGCUGACGGACAUGGUCCUAACCACGCAGCCAAGUCCUAAGUCAACAGAUCUUCUGUUGAUAUGGAUGCAGUUCACAGACUAAAUGUCGGUCGGGGAAGAUGUAUUCUUCUCAUAAGAUAUAGUCGGACCUCUCCUUAAUGGGAGCUAGCGGAUGAAGUGAUGCAACACUGGAGCCGCUGGGAACUAAUUUGUAUGCGAAAGUAUAUUGAUUAGUUUUGGAGUACUCGUGGUCG
# Method in brief: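 Pooled colonies went to amplicon sequencing on an Illumina HiSeq 2500 after six replicate transformations. The plates were LB agar with 100 μg/mL carbenicillin, 50 μM IPTG and 0.2% rhamnose, with or without 25 μg/mL kanamycin, incubated overnight at 37°C or 30°C. The E. coli BL21(DE3) library had all eight P1ex-region intron nucleotides randomised, the intron placed in the knt kanamycin-resistance gene on pET-22b(+). DiMSum fitness is the error-weighted combination of replicate fold changes, kanamycin against none, normalised to wild type.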
Sequence,self-splicing fitness (ln) (30 °C),self-splicing fitness (ln) (37 °C)
UGAAAGCAAUAUUACGCGUA,-1.31 ± 0.12,-0.174 ± 0.13
UGAAAGCAAUAUUACGGAAG,-1.78 ± 0.11,-1.15 ± 0.14
UGAAAGCAAUAUUACGGCAA,-0.125 ± 0.078,0.497 ± 0.1
UGAAAGCAAUAUUACGGGCC,-3.48 ± 0.23,-1.32 ± 0.22
UGAAAGCAAUAUUACGGGCG,-0.0565 ± 0.085,0.348 ± 0.11
UGAAAGCAAUAUUACGGUCG,0.0681 ± 0.051,0.137 ± 0.067
UGAAAGCAAUAUUACGUAUG,-1.53 ± 0.098,-1.21 ± 0.14
UGAAAGCAAUAUUACGUCUU,-1.69 ± 0.074,-0.659 ± 0.073
UGAAAGCAAUAUUACGUGCG,-0.35 ± 0.065,-0.395 ± 0.073
UGAAAGCAAUAUUACGUGUA,-1.5 ± 0.091,-1.08 ± 0.11
UGACAGCAAUAUUACGAAAU,-3.12 ± 0.19,-2.74 ± 0.24
UGACAGCAAUAUUACGAAGG,-3.84 ± 0.23,-1.36 ± 0.17
UGACAGCAAUAUUACGAGGA,-2.51 ± 0.16,-3.06 ± 0.22
UGACAGCAAUAUUACGAUCC,-0.422 ± 0.09,0.083 ± 0.11
UGACAGCAAUAUUACGCAGU,-2.63 ± 0.15,-2.13 ± 0.27
UGACAGCAAUAUUACGCCCU,0.0425 ± 0.16,0.0969 ± 0.14
UGACAGCAAUAUUACGGACC,-0.664 ± 0.12,-0.748 ± 0.21
UGACAGCAAUAUUACGGCGC,-2.47 ± 0.15,-1.25 ± 0.15
UGACAGCAAUAUUACGGUUC,-2.92 ± 0.11,-1.79 ± 0.085
UGACAGCAAUAUUACGUAAG,-1.2 ± 0.064,-0.489 ± 0.067
UGACAGCAAUAUUACGUAUA,-2.19 ± 0.092,-0.776 ± 0.096
UGACAGCAAUAUUACGUUUG,-2 ± 0.071,-1.03 ± 0.081
UGAGAGCAAUAUUACGACCA,-1.91 ± 0.14,-1.14 ± 0.21
UGAGAGCAAUAUUACGAGGA,-3.49 ± 0.34,-2.83 ± 0.4
UGAGAGCAAUAUUACGCAGU,-4.62 ± 0.34,-2.41 ± 0.18

Sequence,self-splicing fitness (ln) (30 °C),self-splicing fitness (ln) (37 °C)
UGAGAGCAAUAUUACGCAUC,-4.1 ± 0.46,-1.8 ± 0.19
UGAGAGCAAUAUUACGCUAC,-2.4 ± 0.49,
UGAGAGCAAUAUUACGCUCA,,-1.22 ± 0.38
UGAGAGCAAUAUUACGGAGU,-2.89 ± 0.29,
UGAGAGCAAUAUUACGGAUU,-3.39 ± 0.29,
UGAGAGCAAUAUUACGGCGU,-4.04 ± 0.35,-2.81 ± 0.34
UGAGAGCAAUAUUACGUACU,,-1.87 ± 0.25
UGAGAGCAAUAUUACGUCGG,-2.21 ± 0.2,-1.77 ± 0.31
UGAGAGCAAUAUUACGUGCA,-1.53 ± 0.087,-0.611 ± 0.1
UGAGAGCAAUAUUACGUUCG,-2.08 ± 0.13,-1.3 ± 0.15
UGAUAGCAAUAUUACGAAAU,-2.83 ± 0.34,-2.19 ± 0.27
UGAUAGCAAUAUUACGAAGA,-2.56 ± 0.26,-1.97 ± 0.22
UGAUAGCAAUAUUACGAGAG,-3.29 ± 0.43,-1.65 ± 0.18
UGAUAGCAAUAUUACGAGCA,-0.12 ± 0.094,-0.0253 ± 0.14
UGAUAGCAAUAUUACGAGUC,-3.08 ± 0.22,-3.08 ± 0.4
UGAUAGCAAUAUUACGAUGG,-1.56 ± 0.11,-1.72 ± 0.16
UGAUAGCAAUAUUACGCAAA,-2.25 ± 0.19,-0.0467 ± 0.16
UGAUAGCAAUAUUACGCCUG,0.213 ± 0.14,0.502 ± 0.2
UGAUAGCAAUAUUACGCGGA,-2.4 ± 0.48,-0.465 ± 0.29
UGAUAGCAAUAUUACGGGCU,-2.42 ± 0.13,-2.11 ± 0.14
UGAUAGCAAUAUUACGGGUC,-4.2 ± 0.34,-2.63 ± 0.37
UGAUAGCAAUAUUACGUACC,-1.76 ± 0.2,-1.6 ± 0.26
UGAUAGCAAUAUUACGUCGC,,-2.13 ± 0.39
UGAUAGCAAUAUUACGUCUA,0.0941 ± 0.089,-0.107 ± 0.094
UGAUAGCAAUAUUACGUGGA,-3.45 ± 0.3,-2.23 ± 0.2

Sequence,self-splicing fitness (ln) (30 °C),self-splicing fitness (ln) (37 °C)
UGAUAGCAAUAUUACGUGGG,-2.86 ± 0.17,-0.621 ± 0.11
UGAUAGCAAUAUUACGUUUA,-2.2 ± 0.12,-0.742 ± 0.1
UGCAAGCAAUAUUACGAAAU,-3.34 ± 0.2,-2.04 ± 0.22
UGCAAGCAAUAUUACGAAGG,-1.6 ± 0.12,-1.47 ± 0.2
UGCAAGCAAUAUUACGAAUA,-1.88 ± 0.12,-1.04 ± 0.13
UGCAAGCAAUAUUACGACAA,-0.541 ± 0.088,0.237 ± 0.1
UGCAAGCAAUAUUACGCAAC,-1.9 ± 0.26,-2.11 ± 0.28
UGCAAGCAAUAUUACGCAGC,-3.6 ± 0.23,-2.58 ± 0.23
UGCAAGCAAUAUUACGCUCC,-0.565 ± 0.2,-1.37 ± 0.34
UGCAAGCAAUAUUACGGACC,-0.803 ± 0.088,-1.12 ± 0.16
UGCAAGCAAUAUUACGGAGA,-2.45 ± 0.21,-3.01 ± 0.29
UGCAAGCAAUAUUACGGAGU,-2.83 ± 0.14,-3.18 ± 0.16
UGCAAGCAAUAUUACGGCUA,0.00387 ± 0.089,-0.123 ± 0.1
UGCAAGCAAUAUUACGGGAA,-2.94 ± 0.16,-1.33 ± 0.12
UGCAAGCAAUAUUACGGGCU,-1.12 ± 0.11,-1.48 ± 0.14
UGCAAGCAAUAUUACGGGUG,-0.825 ± 0.051,-0.33 ± 0.065
UGCAAGCAAUAUUACGGUAG,-0.738 ± 0.073,-0.376 ± 0.081
UGCAAGCAAUAUUACGGUGC,-3.59 ± 0.16,-2.49 ± 0.19
UGCAAGCAAUAUUACGUGAA,-2.26 ± 0.1,-1.03 ± 0.11
UGCAAGCAAUAUUACGUGCU,-2.02 ± 0.1,-0.559 ± 0.094
UGCAAGCAAUAUUACGUUCG,-0.427 ± 0.048,-0.226 ± 0.067
UGCAAGCAAUAUUACGUUUG,-4.16 ± 0.33,-2.87 ± 0.33
UGCCAGCAAUAUUACGAACU,-2.14 ± 0.11,-0.854 ± 0.13
UGCCAGCAAUAUUACGAAUG,-1.3 ± 0.18,0.0957 ± 0.17
UGCCAGCAAUAUUACGACCC,-3.56 ± 0.24,-1.42 ± 0.21

Sequence,self-splicing fitness (ln) (30 °C),self-splicing fitness (ln) (37 °C)
UGCCAGCAAUAUUACGAGUU,-2.53 ± 0.17,-0.56 ± 0.14
UGCCAGCAAUAUUACGAUUG,-1.63 ± 0.078,-0.196 ± 0.086
UGCCAGCAAUAUUACGCAGA,-2.81 ± 0.2,-1.66 ± 0.14
UGCCAGCAAUAUUACGCAUU,-3.81 ± 0.46,-1.24 ± 0.21
UGCCAGCAAUAUUACGCCAG,-3.29 ± 0.18,-2.39 ± 0.27
UGCCAGCAAUAUUACGCCGG,-4.03 ± 0.21,-3.05 ± 0.25
UGCCAGCAAUAUUACGCCGU,-3.97 ± 0.39,-2.32 ± 0.32
UGCCAGCAAUAUUACGCCUG,-2.1 ± 0.16,-0.0397 ± 0.12
UGCCAGCAAUAUUACGCGGA,-2.24 ± 0.1,-1.32 ± 0.094
UGCCAGCAAUAUUACGCUCG,-0.839 ± 0.086,-0.622 ± 0.14
UGCCAGCAAUAUUACGGCAC,-2.9 ± 0.33,-2.56 ± 0.3
UGCCAGCAAUAUUACGGCGA,-0.122 ± 0.072,0.211 ± 0.093
UGCCAGCAAUAUUACGGGAG,-2.75 ± 0.11,-0.763 ± 0.1
UGCCAGCAAUAUUACGGGUG,-2.99 ± 0.13,-2.98 ± 0.17
UGCCAGCAAUAUUACGGUAA,-1.15 ± 0.055,-0.9 ± 0.059
UGCCAGCAAUAUUACGGUAC,,-2.89 ± 0.47
UGCCAGCAAUAUUACGUAAC,-2.39 ± 0.18,-2.36 ± 0.2
UGCCAGCAAUAUUACGUACA,-0.269 ± 0.076,0.081 ± 0.089
UGCCAGCAAUAUUACGUACG,-0.444 ± 0.061,0.435 ± 0.084
UGCCAGCAAUAUUACGUCCA,-0.0851 ± 0.076,0.335 ± 0.09
UGCCAGCAAUAUUACGUCGG,-4.72 ± 0.41,-2.68 ± 0.25
UGCCAGCAAUAUUACGUGAU,-2.59 ± 0.14,-1.6 ± 0.099
